These results are taken from publication PMC12329027 (Communications Chemistry, 2025).

This data set concerns the molecule itself. The data set can be described thus: cryo-EM structure.

B1: full-length human αA-crystallin carrying the pathological mutation R116C (natural protein)
chain: MDVTIQHPWFKRTLGPFYPSRLFDQFFGEGLFEYDLLPFLSSTISPYYRQSLFRTVLDSGISEVRSDRDKFVIFLDVKHFSPEDLTVKVQDDFVEIHGKHNERQDDHGYISREFHCRYRLPSNVDQSALSCSLSADGMLTFCGPKIQTGLDATHAERAIPVSREEKPTSAPSS
On to B1, for which the binding result is recorded as “binds”.
